Paper PMC12501226

Molecular target: SARS-CoV-2 spike HexaPro protein (SARS-CoV-2)
Assay: SPR

Substance: ACE2 monomer (human extracellular ACE2 domain, residues 18-615, cut from ACE2-TEV-Fc) (from UniProt Q9BYF1 18-615) (domain or fragment)
- Kd: 49 nM
- koff: 0.0073 s⁻¹
- kon: 150000 M⁻¹ s⁻¹

Substance: T1A (collagen XVIII trimerization domain, 1-residue G/S linker, ACE2 18-615) (from UniProt P39060;Q9BYF1)
- Kd: 0.1 nM

Substance: T3A (collagen XVIII trimerization domain, 3-residue G/S linker, ACE2 18-615) (from UniProt P39060;Q9BYF1)
- Kd: 0.37 nM

Substance: T5A (collagen XVIII trimerization domain, 5-residue G/S linker, ACE2 18-615) (from UniProt P39060;Q9BYF1)
- Kd: 0.69 nM
